From patent publication US20160031996A1 (CSL, published 2016)

T1: human IL-3Rα E51Q/S59A double mutant, full length (human, UniProt P26951 19-378)
T1 chain: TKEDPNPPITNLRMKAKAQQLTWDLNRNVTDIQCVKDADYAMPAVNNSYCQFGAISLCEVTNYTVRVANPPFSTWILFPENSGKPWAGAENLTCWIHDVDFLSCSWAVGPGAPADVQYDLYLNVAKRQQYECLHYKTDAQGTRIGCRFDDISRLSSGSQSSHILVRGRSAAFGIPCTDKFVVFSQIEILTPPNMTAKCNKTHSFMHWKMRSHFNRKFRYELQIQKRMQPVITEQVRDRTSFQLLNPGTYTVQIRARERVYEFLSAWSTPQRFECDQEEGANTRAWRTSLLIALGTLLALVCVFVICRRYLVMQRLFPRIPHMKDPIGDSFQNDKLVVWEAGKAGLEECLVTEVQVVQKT

T2: human IL-3Rα E51Q/P88T double mutant, full length (human, UniProt P26951 19-378)
T2 chain: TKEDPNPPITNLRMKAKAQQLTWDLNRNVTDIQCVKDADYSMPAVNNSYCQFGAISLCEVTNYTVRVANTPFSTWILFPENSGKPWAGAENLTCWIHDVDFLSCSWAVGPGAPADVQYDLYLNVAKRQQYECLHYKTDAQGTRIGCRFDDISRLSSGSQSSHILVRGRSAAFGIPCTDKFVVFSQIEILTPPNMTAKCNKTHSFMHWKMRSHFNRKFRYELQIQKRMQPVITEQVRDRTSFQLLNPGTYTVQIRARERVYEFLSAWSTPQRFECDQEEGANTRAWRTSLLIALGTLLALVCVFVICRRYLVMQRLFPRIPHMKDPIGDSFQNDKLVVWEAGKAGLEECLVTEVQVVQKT

T3: human IL-3Rα S59A/P88T double mutant, full length (human, UniProt P26951 19-378)
T3 chain: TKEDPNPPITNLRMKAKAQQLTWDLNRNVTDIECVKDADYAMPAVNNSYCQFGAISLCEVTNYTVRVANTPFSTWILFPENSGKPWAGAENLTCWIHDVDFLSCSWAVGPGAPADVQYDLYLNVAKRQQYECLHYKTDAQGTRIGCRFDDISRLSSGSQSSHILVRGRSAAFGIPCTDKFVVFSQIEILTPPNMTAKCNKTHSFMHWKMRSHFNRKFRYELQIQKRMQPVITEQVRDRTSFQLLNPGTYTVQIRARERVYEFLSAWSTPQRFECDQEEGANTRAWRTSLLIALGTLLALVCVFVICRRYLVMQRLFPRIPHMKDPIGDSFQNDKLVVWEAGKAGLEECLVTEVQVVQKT

T4: human IL-3Rα E51Q/S59A/P88T triple mutant, full length (human, UniProt P26951 19-378)
T4 chain: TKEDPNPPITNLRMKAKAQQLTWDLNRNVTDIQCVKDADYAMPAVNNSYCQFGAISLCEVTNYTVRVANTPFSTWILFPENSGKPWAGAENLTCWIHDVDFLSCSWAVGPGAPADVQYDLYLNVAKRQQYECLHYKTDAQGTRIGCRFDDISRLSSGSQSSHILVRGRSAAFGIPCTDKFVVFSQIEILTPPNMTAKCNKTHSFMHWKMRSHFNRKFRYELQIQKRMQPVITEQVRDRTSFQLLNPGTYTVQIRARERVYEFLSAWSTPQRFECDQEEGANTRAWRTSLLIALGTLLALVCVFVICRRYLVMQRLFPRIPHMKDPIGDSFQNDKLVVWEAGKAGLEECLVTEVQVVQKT

T5: soluble human IL-3Rα 1-306-His S59A (human, UniProt P26951 19-307)
T5 construct: supernatant of 293FS cells; also called S59, soluble alanine
T5 sequence: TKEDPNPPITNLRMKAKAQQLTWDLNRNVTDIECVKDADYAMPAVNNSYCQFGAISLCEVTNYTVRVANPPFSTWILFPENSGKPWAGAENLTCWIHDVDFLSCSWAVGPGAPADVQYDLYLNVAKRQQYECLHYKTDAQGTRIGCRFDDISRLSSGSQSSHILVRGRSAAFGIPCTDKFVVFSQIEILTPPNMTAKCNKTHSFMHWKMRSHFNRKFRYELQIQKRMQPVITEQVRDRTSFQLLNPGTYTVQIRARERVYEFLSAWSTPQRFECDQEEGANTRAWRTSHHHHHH

T6: soluble human IL-3Rα 1-306-His Y67A (human, UniProt P26951 19-307)
T6 construct: supernatant of 293FS cells; also called Y67, soluble alanine
T6 sequence: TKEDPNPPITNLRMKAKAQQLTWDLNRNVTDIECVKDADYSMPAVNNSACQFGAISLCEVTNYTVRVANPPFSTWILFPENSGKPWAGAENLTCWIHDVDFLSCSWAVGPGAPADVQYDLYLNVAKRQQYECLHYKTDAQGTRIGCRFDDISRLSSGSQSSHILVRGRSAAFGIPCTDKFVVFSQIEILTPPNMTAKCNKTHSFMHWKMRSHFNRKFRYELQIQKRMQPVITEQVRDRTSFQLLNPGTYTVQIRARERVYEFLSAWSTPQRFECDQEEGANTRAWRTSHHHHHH

T7: soluble human IL-3Rα 1-306-His P97A (human, UniProt P26951 19-307)
T7 construct: supernatant of 293FS cells; also called P97, soluble alanine
T7 sequence: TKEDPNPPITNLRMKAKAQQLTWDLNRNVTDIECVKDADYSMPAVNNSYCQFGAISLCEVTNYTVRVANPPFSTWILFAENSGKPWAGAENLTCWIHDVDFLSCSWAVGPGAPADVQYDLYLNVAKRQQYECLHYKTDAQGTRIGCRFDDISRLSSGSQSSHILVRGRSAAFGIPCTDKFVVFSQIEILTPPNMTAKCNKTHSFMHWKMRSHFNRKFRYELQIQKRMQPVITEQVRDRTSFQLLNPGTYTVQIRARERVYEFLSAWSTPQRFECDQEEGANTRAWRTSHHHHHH


What was measured:
[1] = biological target: T1, human IL-3Rα E51Q/S59A double mutant, …; assay: Western blot after SDS-PAGE of whole cell extracts
[2] = biological target: T2, human IL-3Rα E51Q/P88T double mutant, …; assay: Western blot after SDS-PAGE of whole cell extracts
[3] = biological target: T3, human IL-3Rα S59A/P88T double mutant, …; assay: Western blot after SDS-PAGE of whole cell extracts
[4] = biological target: T4, human IL-3Rα E51Q/S59A/P88T triple …; assay: Western blot after SDS-PAGE of whole cell extracts
[5] = biological target: T5, soluble human IL-3Rα 1-306-His S59A; assay: Western blot, supernatants of 293FS cells
[6] = biological target: T6, soluble human IL-3Rα 1-306-His Y67A; assay: Western blot, supernatants of 293FS cells
[7] = biological target: T7, soluble human IL-3Rα 1-306-His P97A; assay: Western blot, supernatants of 293FS cells

| binding result [1] | binding result [2] | binding result [3] | binding result [4] | binding result [5] | binding result [6] | binding result [7] | Binder |
| --- | --- | --- | --- | --- | --- | --- | --- |
| no binding | no binding | no binding | no binding |  |  |  | monoclonal antibody 7G3 (antibody, V domains shown, mouse monoclonal antibody (hybridoma ATCC HB-12009)) VH: EVQLQQSGPELVKPGASVKMSCKASGYTFTDYYMKWVKQSHGKSLEWIGDIIPSNGATFYNQKFKGKATLTVDRSSSTAYMHLNSLTSEDSAVYYCTRSHLLRASWFAYWGQGTLVTVSA VL: DFVMTQSPSSLTVTAGEKVTMSCKSSQSLLNSGNQKNYLTWYLQKPGQPPKLLIYWASTRESGVPDRFTGSGSGTDFTLTISSVQAEDLAVYYCQNDYSYPYTFGGGTKLEIKR |
|  |  |  |  | no binding | no binding | no binding | antibody CSL362 (antibody, V domains shown) VH: EVQLVQSGAEVKKPGESLKISCKGSGYSFTDYYMKWARQMPGKGLEWMGDIIPSNGATFYNQKFKGQVTISADKSISTTYLQWSSLKASDTAMYYCARSHLLRASWFAYWGQGTMVTVSS VL: DIVMTQSPDSLAVSLGERATINCESSQSLLNSGNQKNYLTWYQQKPGQPPKPLIYWASTRESGVPDRFSGSGSGTDFTLTISSLQAEDVAVYYCQNDYSYPYTFGQGTKLEIKR |
